Results: PMC6265447, “The bacterial Mre11–Rad50 homolog SbcCD cleaves opposing strands of DNA by two chemically distinct nuclease reactions” (Nucleic Acids Research, 2018)

Tests used:
[1] = target: SbcC;SbcD H84Q H84Q (Escherichia coli;Escherichia coli) (UniProt P13458+P0AG76); test: fluorescence anisotropy; details: 5 mM Mg2+, 1 mM Mn2+; 25 mM Tris pH 7.5, 50 mM KCl, 5 mM MgCl2, 1 mM MnCl2, 1 mM DTT, 1 mM ATP where stated; 5 nM DNA, 2-1000 nM SbcCD, 20 min at 25 C
[2] = system: T1, Nc1ncnc2c1ncn2[C@@H]1O[C@H](COP(=O)(O)OP(=O)(O)OP(=O)(O)O)[C@@H](O)[C@H]1O; test: NADH-coupled (PK/LDH) ATPase assay, Michaelis-Menten fit; format: biochemical, Escherichia coli; details: dsDNA present, 5 mM MgCl2, 1 mM MnCl2, 50 mM KCl, 25 mM Tris pH 7.5, 37°C
T1 construct: full-length SbcC (pET28) and SbcD with C-terminal His6 (pET21b), co-expressed in E. coli BL21(DE3); SbcC2-SbcD2 heterotetramer; printed 4M0V is the SbcD dimer structure only; with Nuclease SbcCD subunit D

Substance	Kd [1]	Km [2]
60 bp DNA, AT-rich positions 15-29	45 nM	
60 bp DNA, GC-rich positions 15-29	132 nM	
SbcCD (Escherichia coli K-12)		46 ± 6 µM
